The results in this text go back to article PMC8364233.

The target of data set [1] is MBP-LjNLP4 (564–976) (Lotus japonicus). The data set is described as follows: SEC-MALS. In general terms: SEC sorts molecules by how far they enter the pores of the column.
Data set [2] deals with MBP-LjNIN (551–878) (Lotus japonicus). The data set is described as follows: SEC-MALS.
The target of data set [3] is MBP-LjNIN (551-878) (Lotus japonicus, UniProt Q9S7B1 551-878). The data set is described as follows: EMSA. On the technique in general: A gel shift assay detects complexes by their altered migration in electrophoresis.
For data set [4], the target named is MBP-LjNLP4 (564-976) (Lotus japonicus, UniProt A0A2Z5V8A6 564-976). The data set is described as follows: EMSA.
The target of data set [5] is MBP-LjNLP4 (564-976);Trx-His-LjNIN (551-878) (Lotus japonicus;Lotus japonicus, UniProt A0A2Z5V8A6;Q9S7B1 564-976;551-878, |). Description: EMSA.

In general, stoichiometry N refers to a count of units in the complex or per binding partner. For “MBP-LjNLP4 (564–976) (domain or fragment)”, in data set [1], the stoichiometry N worked out at 2. Take “MBP-LjNIN (551–878) (domain or fragment)”: the stoichiometry N in data set [2] amounted to 2.

B1: CLE-RS2pro (dsDNA)
DNA 1: TGAGTTCTGACCCTTAAGCCTTGGAAAGGACAGTCATG
DNA 2: CATGACTGTCCTTTCCAAGGCTTAAGGGTCAGAACTCA
On to B1, for which the binding result in data set [3] and in data set [4] was “binds” each time.

B2: LjNF-YBpro (dsDNA)
DNA 1: TTTACTTGTATCTTTAGAGCTTTCCAAGGGATATTTCA
DNA 2: TGAAATATCCCTTGGAAAGCTCTAAAGATACAAGTAAA
Consider B2, for which the results for the binding result in data set [3], in data set [5] and in data set [4] were “binds”, “binds” and “no binding”, respectively.

B3: LjNIR1pro (dsDNA)
DNA 1: CAAACACGACCCTTTGTCACAACCAAAGGTCCATTGTA
DNA 2: TACAATGGACCTTTGGTTGTGACAAAGGGTCGTGTTTG
On to B3, for which the binding result in data set [3] and in data set [4] was “binds” throughout.
